Where no end group is shown, it is not given here. [ ]: non-standard residue; d: D form. Aib = CC(C)(N)C(=O)O
Tests used:
[1] = target: human glucagon receptor (GCGR) (human, UniProt P47871 26-477); test: cell-based or functional assay
[2] = target: human GLP-1 receptor (GLP-1R) (human, UniProt P43220 24-463); test: cell-based or functional assay
Chain of human GLP-1 receptor (GLP-1R) (P43220 24-463): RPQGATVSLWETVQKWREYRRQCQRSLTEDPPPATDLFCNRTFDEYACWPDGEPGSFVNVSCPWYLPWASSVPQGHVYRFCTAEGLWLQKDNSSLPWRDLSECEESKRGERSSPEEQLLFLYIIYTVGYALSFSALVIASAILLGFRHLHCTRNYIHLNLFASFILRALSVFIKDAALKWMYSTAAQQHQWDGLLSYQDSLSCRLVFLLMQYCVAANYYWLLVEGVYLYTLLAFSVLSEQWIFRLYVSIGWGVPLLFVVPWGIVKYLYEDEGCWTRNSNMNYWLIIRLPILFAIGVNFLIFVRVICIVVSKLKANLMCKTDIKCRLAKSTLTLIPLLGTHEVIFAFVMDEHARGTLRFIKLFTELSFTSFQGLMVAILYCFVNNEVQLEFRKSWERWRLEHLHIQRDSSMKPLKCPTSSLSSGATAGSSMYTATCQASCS

| Binder | hGCGR pEC50 (cAMP) [1] | hGLP1 pEC50 (cAMP) [2] |
| --- | --- | --- |
| YSHGTFTSDYSKYLD[Aib]KRAQEFV[Aib]WLEDEPKSKSPPPS-NH2 (N-terminus assumed; SMILES CC(C)C[C@H](NC(=O)[C@H](Cc1ccc(O)cc1)NC(=O)[C@H](CCCCN)NC(=O)[C@H](CO)NC(=O)[C@H](Cc1ccc(O)cc1)NC(=O)[C@H](CC(=O)O)NC(=O)[C@H](CO)NC(=O)[C@@H](NC(=O)[C@H](Cc1ccccc1)NC(=O)[C@@H](NC(=O)CNC(=O)[C@H](Cc1c[nH]cn1)NC(=O)[C@H](CO)NC(=O)[C@@H](N)Cc1ccc(O)cc1)[C@@H](C)O)[C@@H](C)O)C(=O)N[C@@H](CC(=O)O)C(=O)NC(C)(C)C(=O)N[C@@H](CCCCN)C(=O)N[C@@H](CCCNC(=N)N)C(=O)N[C@@H](C)C(=O)N[C@@H](CCC(N)=O)C(=O)N[C@@H](CCC(=O)O)C(=O)N[C@@H](Cc1ccccc1)C(=O)N[C@H](C(=O)NC(C)(C)C(=O)N[C@@H](Cc1c[nH]c2ccccc12)C(=O)N[C@@H](CC(C)C)C(=O)N[C@@H](CCC(=O)O)C(=O)N[C@@H](CC(=O)O)C(=O)N[C@@H](CCC(=O)O)C(=O)N1CCC[C@H]1C(=O)N[C@@H](CCCCN)C(=O)N[C@@H](CO)C(=O)N[C@@H](CCCCN)C(=O)N[C@@H](CO)C(=O)N1CCC[C@H]1C(=O)N1CCC[C@H]1C(=O)N1CCC[C@H]1C(=O)N[C@@H](CO)C(N)=O)C(C)C) [Compound A66] | 12.5 pEC50 | < 9 pEC50 |
| YSHGTFTSDYSKYLDSARAQEFVKWLEDEPKSKSPPPS-OH [Compound A70] | 12 pEC50 | < 9 pEC50 |
| YSHGTFTSDYSKYLDSARAQEFVKWLEDEPKSKEPPPS-NH2 [Compound A72] | 12.1 pEC50 | < 9 pEC50 |
| YSHGTFTSDYSKYLD[Aib]ARAQEFV[Aib]WLEDEPKSKEPPPS-NH2 (N-terminus assumed; SMILES CC(C)C[C@H](NC(=O)[C@H](Cc1ccc(O)cc1)NC(=O)[C@H](CCCCN)NC(=O)[C@H](CO)NC(=O)[C@H](Cc1ccc(O)cc1)NC(=O)[C@H](CC(=O)O)NC(=O)[C@H](CO)NC(=O)[C@@H](NC(=O)[C@H](Cc1ccccc1)NC(=O)[C@@H](NC(=O)CNC(=O)[C@H](Cc1c[nH]cn1)NC(=O)[C@H](CO)NC(=O)[C@@H](N)Cc1ccc(O)cc1)[C@@H](C)O)[C@@H](C)O)C(=O)N[C@@H](CC(=O)O)C(=O)NC(C)(C)C(=O)N[C@@H](C)C(=O)N[C@@H](CCCNC(=N)N)C(=O)N[C@@H](C)C(=O)N[C@@H](CCC(N)=O)C(=O)N[C@@H](CCC(=O)O)C(=O)N[C@@H](Cc1ccccc1)C(=O)N[C@H](C(=O)NC(C)(C)C(=O)N[C@@H](Cc1c[nH]c2ccccc12)C(=O)N[C@@H](CC(C)C)C(=O)N[C@@H](CCC(=O)O)C(=O)N[C@@H](CC(=O)O)C(=O)N[C@@H](CCC(=O)O)C(=O)N1CCC[C@H]1C(=O)N[C@@H](CCCCN)C(=O)N[C@@H](CO)C(=O)N[C@@H](CCCCN)C(=O)N[C@@H](CCC(=O)O)C(=O)N1CCC[C@H]1C(=O)N1CCC[C@H]1C(=O)N1CCC[C@H]1C(=O)N[C@@H](CO)C(N)=O)C(C)C) [Compound A68] | 11.3 pEC50 | < 9 pEC50 |
| YSHGTFTSDYSKYLD[Aib]KRAQEFV[Aib]WLEDEPKSKEPPPS-NH2 (N-terminus assumed; SMILES CC(C)C[C@H](NC(=O)[C@H](Cc1ccc(O)cc1)NC(=O)[C@H](CCCCN)NC(=O)[C@H](CO)NC(=O)[C@H](Cc1ccc(O)cc1)NC(=O)[C@H](CC(=O)O)NC(=O)[C@H](CO)NC(=O)[C@@H](NC(=O)[C@H](Cc1ccccc1)NC(=O)[C@@H](NC(=O)CNC(=O)[C@H](Cc1c[nH]cn1)NC(=O)[C@H](CO)NC(=O)[C@@H](N)Cc1ccc(O)cc1)[C@@H](C)O)[C@@H](C)O)C(=O)N[C@@H](CC(=O)O)C(=O)NC(C)(C)C(=O)N[C@@H](CCCCN)C(=O)N[C@@H](CCCNC(=N)N)C(=O)N[C@@H](C)C(=O)N[C@@H](CCC(N)=O)C(=O)N[C@@H](CCC(=O)O)C(=O)N[C@@H](Cc1ccccc1)C(=O)N[C@H](C(=O)NC(C)(C)C(=O)N[C@@H](Cc1c[nH]c2ccccc12)C(=O)N[C@@H](CC(C)C)C(=O)N[C@@H](CCC(=O)O)C(=O)N[C@@H](CC(=O)O)C(=O)N[C@@H](CCC(=O)O)C(=O)N1CCC[C@H]1C(=O)N[C@@H](CCCCN)C(=O)N[C@@H](CO)C(=O)N[C@@H](CCCCN)C(=O)N[C@@H](CCC(=O)O)C(=O)N1CCC[C@H]1C(=O)N1CCC[C@H]1C(=O)N1CCC[C@H]1C(=O)N[C@@H](CO)C(N)=O)C(C)C) [Compound A65] | 12.5 pEC50 | < 9 pEC50 |
| YSHGTFTSDYSKYLDSARAQEFVKWLEDEPKSKEPPPS-OH [Compound A69] | 11.8 pEC50 | < 9 pEC50 |
| YSHGTFTSDYSKYLDSARAQEFVKWLEDEPKSKAPPPS-OH [Compound A71] | 11.7 pEC50 | < 9 pEC50 |
| YSHGTFTSDYSKYLDSARAQEFVKWLEDEPKSKSPPPS-NH2 [Compound A73] | 11.7 pEC50 | < 9 pEC50 |
| WSHGTFTSDYSKYLD[Aib]KRAQEFV[Aib]WLEDEPSSGAPPPS-OH (N-terminus assumed; SMILES CC(C)C[C@H](NC(=O)[C@H](Cc1ccc(O)cc1)NC(=O)[C@H](CCCCN)NC(=O)[C@H](CO)NC(=O)[C@H](Cc1ccc(O)cc1)NC(=O)[C@H](CC(=O)O)NC(=O)[C@H](CO)NC(=O)[C@@H](NC(=O)[C@H](Cc1ccccc1)NC(=O)[C@@H](NC(=O)CNC(=O)[C@H](Cc1c[nH]cn1)NC(=O)[C@H](CO)NC(=O)[C@@H](N)Cc1c[nH]c2ccccc12)[C@@H](C)O)[C@@H](C)O)C(=O)N[C@@H](CC(=O)O)C(=O)NC(C)(C)C(=O)N[C@@H](CCCCN)C(=O)N[C@@H](CCCNC(=N)N)C(=O)N[C@@H](C)C(=O)N[C@@H](CCC(N)=O)C(=O)N[C@@H](CCC(=O)O)C(=O)N[C@@H](Cc1ccccc1)C(=O)N[C@H](C(=O)NC(C)(C)C(=O)N[C@@H](Cc1c[nH]c2ccccc12)C(=O)N[C@@H](CC(C)C)C(=O)N[C@@H](CCC(=O)O)C(=O)N[C@@H](CC(=O)O)C(=O)N[C@@H](CCC(=O)O)C(=O)N1CCC[C@H]1C(=O)N[C@@H](CO)C(=O)N[C@@H](CO)C(=O)NCC(=O)N[C@@H](C)C(=O)N1CCC[C@H]1C(=O)N1CCC[C@H]1C(=O)N1CCC[C@H]1C(=O)N[C@@H](CO)C(=O)O)C(C)C) [Compound A75] | 11.3 pEC50 | < 9 pEC50 |
| YSHGTFTSDYSKYLD[Aib]ARAQEFV[Aib]WLEDEPKSKSPPPS-NH2 (N-terminus assumed; SMILES CC(C)C[C@H](NC(=O)[C@H](Cc1ccc(O)cc1)NC(=O)[C@H](CCCCN)NC(=O)[C@H](CO)NC(=O)[C@H](Cc1ccc(O)cc1)NC(=O)[C@H](CC(=O)O)NC(=O)[C@H](CO)NC(=O)[C@@H](NC(=O)[C@H](Cc1ccccc1)NC(=O)[C@@H](NC(=O)CNC(=O)[C@H](Cc1c[nH]cn1)NC(=O)[C@H](CO)NC(=O)[C@@H](N)Cc1ccc(O)cc1)[C@@H](C)O)[C@@H](C)O)C(=O)N[C@@H](CC(=O)O)C(=O)NC(C)(C)C(=O)N[C@@H](C)C(=O)N[C@@H](CCCNC(=N)N)C(=O)N[C@@H](C)C(=O)N[C@@H](CCC(N)=O)C(=O)N[C@@H](CCC(=O)O)C(=O)N[C@@H](Cc1ccccc1)C(=O)N[C@H](C(=O)NC(C)(C)C(=O)N[C@@H](Cc1c[nH]c2ccccc12)C(=O)N[C@@H](CC(C)C)C(=O)N[C@@H](CCC(=O)O)C(=O)N[C@@H](CC(=O)O)C(=O)N[C@@H](CCC(=O)O)C(=O)N1CCC[C@H]1C(=O)N[C@@H](CCCCN)C(=O)N[C@@H](CO)C(=O)N[C@@H](CCCCN)C(=O)N[C@@H](CO)C(=O)N1CCC[C@H]1C(=O)N1CCC[C@H]1C(=O)N1CCC[C@H]1C(=O)N[C@@H](CO)C(N)=O)C(C)C) [Compound A67] | 10.9 pEC50 | < 9 pEC50 |
| YTHGTFTSDYSKYLD[Aib]ARAQEFV[Aib]WLEDEPSSGAPPPS-OH (N-terminus assumed; SMILES CC(C)C[C@H](NC(=O)[C@H](Cc1ccc(O)cc1)NC(=O)[C@H](CCCCN)NC(=O)[C@H](CO)NC(=O)[C@H](Cc1ccc(O)cc1)NC(=O)[C@H](CC(=O)O)NC(=O)[C@H](CO)NC(=O)[C@@H](NC(=O)[C@H](Cc1ccccc1)NC(=O)[C@@H](NC(=O)CNC(=O)[C@H](Cc1c[nH]cn1)NC(=O)[C@@H](NC(=O)[C@@H](N)Cc1ccc(O)cc1)[C@@H](C)O)[C@@H](C)O)[C@@H](C)O)C(=O)N[C@@H](CC(=O)O)C(=O)NC(C)(C)C(=O)N[C@@H](C)C(=O)N[C@@H](CCCNC(=N)N)C(=O)N[C@@H](C)C(=O)N[C@@H](CCC(N)=O)C(=O)N[C@@H](CCC(=O)O)C(=O)N[C@@H](Cc1ccccc1)C(=O)N[C@H](C(=O)NC(C)(C)C(=O)N[C@@H](Cc1c[nH]c2ccccc12)C(=O)N[C@@H](CC(C)C)C(=O)N[C@@H](CCC(=O)O)C(=O)N[C@@H](CC(=O)O)C(=O)N[C@@H](CCC(=O)O)C(=O)N1CCC[C@H]1C(=O)N[C@@H](CO)C(=O)N[C@@H](CO)C(=O)NCC(=O)N[C@@H](C)C(=O)N1CCC[C@H]1C(=O)N1CCC[C@H]1C(=O)N1CCC[C@H]1C(=O)N[C@@H](CO)C(=O)O)C(C)C) [Compound A64] | 10.7 pEC50 | < 9 pEC50 |
| YSHGTFTSDYSKYLDSARAQEFVKWLEDEPKSKAPPPS-NH2 [Compound A74] | 11.6 pEC50 | < 9 pEC50 |
